Measurements published in US20240400614A1, “CLEAVABLE PEPTIDES AND METHODS OF USE THEREOF” (Bright Peak Therapeutics AG, priority 2023, published 2024).
Square brackets hold non-standard residues; d marks the D form. Ends that are not written are not given here. Tyr(3-NO2) = N[C@@H](Cc1ccc(O)c([N+](=O)[O-])c1)C(=O)O; Nle = CCCC[C@H](N)C(=O)O; 2Abz = Nc1ccccc1C(=O)O

Experiments:
Format in all cases: biochemical
uPA = uPA (Homo sapiens, UniProt P00749); assay: FRET peptide cleavage efficiency with uPA
matriptase = molecular target: T1, matriptase (Homo sapiens, UniProt Q9Y5Y6); assay: FRET peptide cleavage efficiency with matriptase
T1 construct: purchased R&D Systems 3946-SEB
T1 sequence (Q9Y5Y6 615-855 limits assumed): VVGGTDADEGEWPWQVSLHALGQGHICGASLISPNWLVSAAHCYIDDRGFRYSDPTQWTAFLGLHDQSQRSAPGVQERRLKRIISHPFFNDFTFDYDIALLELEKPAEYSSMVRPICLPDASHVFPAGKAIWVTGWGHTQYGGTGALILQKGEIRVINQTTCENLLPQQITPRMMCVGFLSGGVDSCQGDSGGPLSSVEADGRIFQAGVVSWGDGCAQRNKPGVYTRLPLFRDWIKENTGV

MMP-2 = molecular target: T2, MMP-2 (Homo sapiens, UniProt P08253); assay: FRET peptide cleavage efficiency with MMP-2
T2 construct: purchased SIGMA PF023
T2 sequence (P08253 110-660): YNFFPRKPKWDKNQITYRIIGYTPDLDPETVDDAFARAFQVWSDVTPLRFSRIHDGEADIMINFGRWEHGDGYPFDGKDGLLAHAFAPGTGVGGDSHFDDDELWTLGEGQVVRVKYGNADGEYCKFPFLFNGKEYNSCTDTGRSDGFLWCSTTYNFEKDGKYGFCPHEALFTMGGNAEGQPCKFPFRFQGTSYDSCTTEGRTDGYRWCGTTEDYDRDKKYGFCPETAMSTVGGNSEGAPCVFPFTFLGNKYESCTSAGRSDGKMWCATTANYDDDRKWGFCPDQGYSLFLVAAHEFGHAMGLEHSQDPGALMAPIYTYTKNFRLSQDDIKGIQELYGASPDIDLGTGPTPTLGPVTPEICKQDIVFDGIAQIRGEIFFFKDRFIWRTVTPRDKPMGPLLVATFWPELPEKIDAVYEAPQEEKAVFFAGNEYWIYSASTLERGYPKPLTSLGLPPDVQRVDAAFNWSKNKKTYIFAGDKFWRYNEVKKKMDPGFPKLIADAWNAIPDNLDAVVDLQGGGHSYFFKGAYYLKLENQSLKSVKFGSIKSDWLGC

MMP-7 = molecular target: T3, MMP-7 (Homo sapiens, UniProt P09237); assay: FRET peptide cleavage efficiency with MMP-7 (standard pH 7.5; also pH 6.5)
T3 construct: purchased SIGMA CC1059
T3 sequence (P09237 95-267): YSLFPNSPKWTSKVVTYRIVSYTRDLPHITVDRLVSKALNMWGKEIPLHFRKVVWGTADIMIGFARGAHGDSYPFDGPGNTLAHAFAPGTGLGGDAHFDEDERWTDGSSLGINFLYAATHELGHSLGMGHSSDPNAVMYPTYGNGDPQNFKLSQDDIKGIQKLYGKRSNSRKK

MMP-9 = molecular target: T4, MMP-9 (Homo sapiens, UniProt P14780); assay: FRET peptide cleavage efficiency with MMP-9 (standard pH 7.5; also pH 6.5)
T4 construct: purchased SIGMA PF024
T4 sequence (P14780 94-707): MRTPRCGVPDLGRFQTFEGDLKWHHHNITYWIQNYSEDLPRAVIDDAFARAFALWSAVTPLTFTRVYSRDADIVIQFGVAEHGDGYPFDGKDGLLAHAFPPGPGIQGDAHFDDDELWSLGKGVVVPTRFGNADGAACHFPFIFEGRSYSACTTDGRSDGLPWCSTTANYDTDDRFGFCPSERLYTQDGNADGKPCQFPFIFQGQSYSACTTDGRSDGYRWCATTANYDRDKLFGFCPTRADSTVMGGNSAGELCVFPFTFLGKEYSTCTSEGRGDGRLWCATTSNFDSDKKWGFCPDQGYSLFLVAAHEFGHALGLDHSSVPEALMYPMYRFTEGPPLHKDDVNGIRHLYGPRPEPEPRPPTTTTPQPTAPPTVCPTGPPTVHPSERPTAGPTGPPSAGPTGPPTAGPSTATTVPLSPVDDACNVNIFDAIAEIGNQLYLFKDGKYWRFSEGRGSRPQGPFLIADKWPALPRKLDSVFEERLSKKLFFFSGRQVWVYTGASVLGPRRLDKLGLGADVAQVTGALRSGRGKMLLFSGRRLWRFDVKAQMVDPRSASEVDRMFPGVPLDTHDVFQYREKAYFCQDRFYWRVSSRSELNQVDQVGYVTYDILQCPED

[1] = t = 60 min, standard conditions (Table 8)
[2] = t = 120 min, standard conditions (Table 8)
[3] = t = 15 min, standard conditions (Table 8)
[4] = 200 uM linker, 1 ug/ml protease, 37° C., buffer A pH 8.5
[5] = 200 uM linker, 1 ug/ml protease, 37° C., buffer B pH 9.0
[6] = t = 15 min, 200 uM linker, 1 ug/ml protease, 37° C., buffer C pH 7.5
[7] = t = 60 min, 200 uM linker, 1 ug/ml protease, 37° C., buffer C pH 7.5
[8] = t = 120 min, 200 uM linker, 1 ug/ml protease, 37° C., buffer C pH 7.5

| % vcleavage uPA t = 15 min (uPA; standard conditions (Table 8)) [%] | % cleavage uPA t = 60 min (uPA; standard conditions (Table 8)) [%] | % cleavage uPA t = 120 min (uPA; standard conditions (Table 8)) [%] | % cleavage Matriptase t = 15 min (matriptase; standard conditions (Table 8)) [%] | % cleavage Matriptase t = 60 min (matriptase; standard conditions (Table 8)) [%] | % cleavage Matriptase t = 120 min (matriptase; standard conditions (Table 8)) [%] | % cleavage MMP-2 t = 15 min (MMP-2; t = 15 min (Table 9)) [%] | % cleavage MMP-2 t = 60 min (MMP-2; t = 60 min (Table 9)) [%] | % cleavage MMP-2 t = 60 min (MMP-2; [1]) [%] | % cleavage MMP-2 t = 120 min (MMP-2; t = 120 min (Table 9)) [%] | % cleavage MMP-2 t = 120 min (MMP-2; [2]) [%] | % cleavage MMP-7 t = 15 min (MMP-7; t = 15 min (Table 9)) [%] | % cleavage MMP-7 t = 15 min (MMP-7; [3]) [%] | % cleavage MMP-7 t = 60 min (MMP-7; t = 60 min (Table 9)) [%] | % cleavage MMP-7 t = 60 min (MMP-7; [1]) [%] | % cleavage MMP-7 t = 120 min (MMP-7; t = 120 min (Table 9)) [%] | % cleavage MMP-7 t = 120 min (MMP-7; [2]) [%] | % cleavage MMP-9 t = 15 min (MMP-9; t = 15 min (Table 9)) [%] | % cleavage MMP-9 t = 60 min (MMP-9; t = 60 min (Table 9)) [%] | % cleavage MMP-9 t = 120 min (MMP-9; t = 120 min (Table 9)) [%] | Substance | further results |
| --- | --- | --- | --- | --- | --- | --- | --- | --- | --- | --- | --- | --- | --- | --- | --- | --- | --- | --- | --- | --- | --- |
| 0 | 0 | 0 | 100 | 100 | 100 | 19 | 55 | 55 | 76 | 76 | 22 | 22 | 69 | 69 | 92 | 92 | 23 | 71 | 97 | RGRKSPY-Nle-LQG ([2Abz]RGRKSPY[Nle]LQG[Tyr(3-NO2)]-NH2) [LNK038] | % cleavage MMP-9 t = 15 min (MMP-9; [3]): 23%; % cleavage MMP-9 t = 60 min (MMP-9; [1]): 71%; % cleavage MMP-9 t = 120 min (MMP-9; [2]): 97% |
| 0 | 0 | 0 | 90 | 100 | 100 | 28 | 70 | 70 | 89 | 89 | 19 | 19 | 63 | 63 | 88 | 88 | 46 | 100 | 100 | RGRKSPYMLQG ([2Abz]RGRKSPYMLQG[Tyr(3-NO2)]-NH2) [LNK037] | % cleavage MMP-9 t = 15 min (MMP-9; [3]): 46%; % cleavage MMP-9 t = 60 min (MMP-9; [1]): 100%; % cleavage MMP-9 t = 120 min (MMP-9; [2]): 100% |
| 0 | 0 | 0 | 100 | 100 | 100 | 0 | 0 | 0 | 0 | 0 | 1 | 1 | 4 | 4 | 9 | 9 | 0 | 1 | 1 | RGRKSQPLVD ([2Abz]RGRKSQPLVD[Tyr(3-NO2)]-NH2) [LNK041] | % cleavage MMP-9 t = 15 min (MMP-9; [3]): 0%; % cleavage MMP-9 t = 60 min (MMP-9; [1]): 1%; % cleavage MMP-9 t = 120 min (MMP-9; [2]): 1% |
| 1 | 1 | 2 | 99 | 100 | 100 | 77 | 100 | 100 | 100 | 100 | 22 | 22 | 74 | 74 | 93 | 93 | 75 | 100 | 100 | RGRKVANLVG ([2Abz]RGRKVANLVG[Tyr(3-NO2)]-NH2) [LNK031] | % cleavage MMP-9 t = 15 min (MMP-9; [3]): 75%; % cleavage MMP-9 t = 60 min (MMP-9; [1]): 100%; % cleavage MMP-9 t = 120 min (MMP-9; [2]): 100% |
|  |  |  |  |  |  | 76 | 100 |  | 100 |  | 0 |  | 0 |  | 0 |  | 32 | 100 | 100 | RGRRAANLVRPLGYFGKL ([2Abz]RGRRAANLVRPLGYFGKL[Tyr(3-NO2)]-NH2) [LNK060] | % cleavage uPA t = 15 min (uPA; [4]): 2%; % cleavage uPA t = 60 min (uPA; [4]): 11%; % cleavage uPA t = 120 min (uPA; [4]): 25%; % cleavage Matriptase t = 15 min (matriptase; [5]): 90%; % cleavage Matriptase t = 60 min (matriptase; [5]): 100%; % cleavage Matriptase t = 120 min (matriptase; [5]): 100%; % cleavage MMP-2 t = 15 min (MMP-2; [6]): 76%; % cleavage MMP-2 t = 60 min (MMP-2; [7]): 100%; % cleavage MMP-2 t = 120 min (MMP-2; [8]): 100% |
| 0 | 0 | 0 | 100 | 100 | 100 | 0 | 0 | 0 | 0 | 0 | 0 | 0 | 0 | 0 | 0 | 0 | 0 | 0 | 0 | RGRRGP ([2Abz]RGRRGP[Tyr(3-NO2)]-NH2) [LNK048] | % cleavage MMP-9 t = 15 min (MMP-9; [3]): 0%; % cleavage MMP-9 t = 60 min (MMP-9; [1]): 0%; % cleavage MMP-9 t = 120 min (MMP-9; [2]): 0% |
|  |  |  |  |  |  | 89 | 100 |  | 100 |  | 1 |  | 4 |  | 8 |  | 56 | 100 | 100 | RGRRPLGLAG ([2Abz]RGRRPLGLAG[Tyr(3-NO2)]-NH2) [LNK049] | % cleavage uPA t = 15 min (uPA; [4]): 0%; % cleavage uPA t = 60 min (uPA; [4]): 0%; % cleavage uPA t = 120 min (uPA; [4]): 0%; % cleavage Matriptase t = 15 min (matriptase; [5]): 16%; % cleavage Matriptase t = 60 min (matriptase; [5]): 70%; % cleavage Matriptase t = 120 min (matriptase; [5]): 100%; % cleavage MMP-2 t = 15 min (MMP-2; [6]): 89%; % cleavage MMP-2 t = 60 min (MMP-2; [7]): 100%; % cleavage MMP-2 t = 120 min (MMP-2; [8]): 100% |
|  |  |  |  |  |  | 73 | 100 |  | 100 |  | 3 |  | 8 |  | 14 |  | 62 | 100 | 100 | RGRRPLGLAGGSG ([2Abz]RGRRPLGLAGGSG[Tyr(3-NO2)]-NH2) [LNK051] | % cleavage uPA t = 15 min (uPA; [4]): 0%; % cleavage uPA t = 60 min (uPA; [4]): 0%; % cleavage uPA t = 120 min (uPA; [4]): 0%; % cleavage Matriptase t = 15 min (matriptase; [5]): 22%; % cleavage Matriptase t = 60 min (matriptase; [5]): 72%; % cleavage Matriptase t = 120 min (matriptase; [5]): 100%; % cleavage MMP-2 t = 15 min (MMP-2; [6]): 73%; % cleavage MMP-2 t = 60 min (MMP-2; [7]): 100%; % cleavage MMP-2 t = 120 min (MMP-2; [8]): 100% |
